# Test results reported in article PMC7502524.
# Biological target: PM20D1-flag (epitope-tagged, AAV serotype 8) (mouse) (UniProt Q8C165)
# Experiment: SEC
# UniProt Q8C165, sequence (Q8C165 25-503): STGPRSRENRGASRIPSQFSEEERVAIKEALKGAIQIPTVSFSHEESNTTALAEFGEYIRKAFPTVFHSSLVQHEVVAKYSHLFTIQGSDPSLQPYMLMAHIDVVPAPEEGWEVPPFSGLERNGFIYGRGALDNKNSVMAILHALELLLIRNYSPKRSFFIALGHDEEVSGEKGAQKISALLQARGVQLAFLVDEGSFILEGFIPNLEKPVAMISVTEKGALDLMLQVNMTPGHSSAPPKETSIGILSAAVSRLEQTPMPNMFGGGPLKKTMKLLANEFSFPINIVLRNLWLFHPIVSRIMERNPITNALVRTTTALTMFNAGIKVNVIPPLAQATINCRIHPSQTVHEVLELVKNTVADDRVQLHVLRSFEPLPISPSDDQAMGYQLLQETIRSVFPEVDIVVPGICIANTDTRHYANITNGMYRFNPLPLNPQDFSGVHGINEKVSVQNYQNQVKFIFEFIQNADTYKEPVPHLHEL
substance,measurement,value
APOB (APOB-containing low-density lipoproteins of mouse plasma) (natural protein),percent of total anti-flag band intensity in APOB+ fractions,91%
